The record followed here is patent US20190177418A1.

The target of experiment [1] is mouse TrkB, endogenous on mouse cortical neurons and mouse embryonic stem cell line (mouse) (UniProt P15209). The experiment can be described thus: cell-based or functional assay.
Experiment [2] addresses human TrkB (tropomyosin receptor kinase B) expressed on CHO reporter cells (human) (UniProt Q16620). Nature of the experiment: cell-based or functional assay.
UniProt Q16620, sequence (Q16620 32-822): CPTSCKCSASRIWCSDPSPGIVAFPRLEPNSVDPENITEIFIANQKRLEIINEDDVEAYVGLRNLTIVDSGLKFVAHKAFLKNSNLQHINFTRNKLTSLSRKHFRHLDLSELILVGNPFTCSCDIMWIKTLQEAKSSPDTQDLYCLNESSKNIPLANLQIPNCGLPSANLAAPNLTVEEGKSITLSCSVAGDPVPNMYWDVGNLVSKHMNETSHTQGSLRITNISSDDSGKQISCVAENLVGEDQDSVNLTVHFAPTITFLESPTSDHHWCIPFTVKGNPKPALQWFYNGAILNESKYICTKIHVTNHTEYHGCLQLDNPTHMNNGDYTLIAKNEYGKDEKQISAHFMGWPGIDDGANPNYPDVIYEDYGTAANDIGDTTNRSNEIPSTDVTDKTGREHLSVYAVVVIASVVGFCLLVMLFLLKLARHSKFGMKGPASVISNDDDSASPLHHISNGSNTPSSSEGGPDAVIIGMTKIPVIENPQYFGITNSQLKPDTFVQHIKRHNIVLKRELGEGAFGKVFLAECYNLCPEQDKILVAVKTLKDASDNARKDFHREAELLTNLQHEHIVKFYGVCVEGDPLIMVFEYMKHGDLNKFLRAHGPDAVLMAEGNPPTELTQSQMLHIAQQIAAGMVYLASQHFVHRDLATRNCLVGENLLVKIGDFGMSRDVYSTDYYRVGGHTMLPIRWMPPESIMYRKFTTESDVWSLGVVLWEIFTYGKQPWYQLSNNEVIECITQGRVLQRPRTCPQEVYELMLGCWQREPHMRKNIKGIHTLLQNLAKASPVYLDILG

UniProt P15209, sequence (P15209 32-821): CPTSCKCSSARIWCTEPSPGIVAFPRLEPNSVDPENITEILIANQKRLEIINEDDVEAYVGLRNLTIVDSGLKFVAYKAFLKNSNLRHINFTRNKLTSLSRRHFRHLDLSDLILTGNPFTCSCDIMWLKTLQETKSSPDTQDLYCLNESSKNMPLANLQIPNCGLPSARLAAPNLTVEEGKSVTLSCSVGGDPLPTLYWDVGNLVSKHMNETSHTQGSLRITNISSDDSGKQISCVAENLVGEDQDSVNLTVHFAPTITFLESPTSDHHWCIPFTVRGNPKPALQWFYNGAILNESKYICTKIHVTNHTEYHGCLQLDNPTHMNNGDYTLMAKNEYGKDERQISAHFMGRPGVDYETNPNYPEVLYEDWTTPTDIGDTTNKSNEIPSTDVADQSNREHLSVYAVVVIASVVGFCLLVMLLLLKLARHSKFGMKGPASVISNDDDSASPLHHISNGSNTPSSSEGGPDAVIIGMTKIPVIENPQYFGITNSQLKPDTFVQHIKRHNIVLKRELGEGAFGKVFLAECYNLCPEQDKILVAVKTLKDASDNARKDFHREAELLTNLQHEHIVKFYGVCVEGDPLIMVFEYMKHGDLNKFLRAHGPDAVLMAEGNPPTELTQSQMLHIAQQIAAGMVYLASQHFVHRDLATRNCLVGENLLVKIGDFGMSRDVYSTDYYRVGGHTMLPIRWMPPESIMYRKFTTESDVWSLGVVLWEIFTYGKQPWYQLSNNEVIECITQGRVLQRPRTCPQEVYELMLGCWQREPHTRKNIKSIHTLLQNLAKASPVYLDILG

As to “brain derived neurotrophic factor (BDNF) (from UniProt P23560 129-247) (ligand)”, the TrkB phosphorylation in mouse embryonic stem cell line in experiment [1] is 2 nM. This substance also yielded a signaling in human TrkB reporter cell in experiment [2] of 2 nM.
